Assay [1] has as its target Cyani HAP2 D1D2 (residues 28–457) (Cyanidioschyzon merolae). Briefly: negative-stain EM; Cyani HAP2 D1D2 at pH 5.0 in 0.1% β-DDM, 26 h, 37 °C; 2D class averages.
Assay [2] has the same target. Briefly: negative-stain EM; Cyani HAP2 D1D2 at pH 1.5 in 0.1% β-DDM, 26 h, 37 °C; 2D class averages.
Assay [3] addresses Chlamy HAP2 (Chlamydomonas reinhardtii HAP2), purified monomer (Chlamydomonas reinhardtii). Put plainly: negative-stain EM; Chlamy HAP2 at pH 7.5 with 0.1% β-DDM, 2 h, 23 °C, gel filtered; 2D class averages.
For assay [4] the target is unchanged. Put plainly: negative-stain EM; Chlamy HAP2 at pH 7.5 with 0.1% β-DDM, 26 h, 23 °C, gel filtered; 2D class averages.
The target in assay [5] is Cyani HAP2 ectodomain (residues 28–564) fusion loop mutant FL2 (L210A, L211A, F213A) (Cyanidioschyzon merolae). Briefly: SEC; WT and mutant ectodomains (16 μM) with nine volumes of citrate buffer pH 3.5, 500 mM NaCl, 0.1% DDM, 37 °C; running buffer pH 3.5 with 0.01% DDM. In general terms: Size exclusion chromatography separates by hydrodynamic size, large species first.
For assay [6] the target is unchanged. Briefly: SEC; WT and mutant ectodomains (16 μM) with nine volumes of citrate buffer pH 4.3, 500 mM NaCl, 0.1% DDM, 2 or 4 h at 37 °C; running buffer pH 4.3 with 0.01% DDM.
Assay [7] deals with Cyani HAP2 ectodomain (aa 28–564), from Drosophila S2 cells (Cyanidioschyzon merolae). Put plainly: negative-stain EM; gel filtration peak of Cyani HAP2 treated with β-DDM at pH 2.0, 37 °C; 2D class averages.
Assay [8] shares this target. Put plainly: SEC-MALS; Superdex 200 10/300 GL; Cyani HAP2 trimer formed at pH 1.5 with β-DDM; protein conjugate model (glycoprotein and β-DDM components).
The target is the same in assay [9]. Briefly: SEC; incubated with 0.1% β-DDM, 500 mM NaCl at pH 1.5, 2.0, 3.5, 4.3 or 5.0, 37 °C, 26 h; Superdex 200 in buffer of the same pH, 0.01% β-DDM; monomer to trimer.
For assay [10] the target is unchanged. Put plainly: negative-stain EM; Cyani HAP2 incubated with β-DDM at pH 5.0, 37 °C, 2 h, gel filtered; 2D class averages.
The target is the same in assay [11]. Briefly: negative-stain EM; Cyani HAP2 incubated with β-DDM at pH 5.0, 37 °C, 26 h, gel filtered; 2D class averages.
The target in assay [12] is Cyani HAP2 ectodomain (residues 28–564) fusion loop mutant FL3 (W147A, L148A) (Cyanidioschyzon merolae). Briefly: SEC; WT and mutant ectodomains (16 μM) with nine volumes of citrate buffer pH 3.5, 500 mM NaCl, 0.1% DDM, 37 °C; running buffer pH 3.5 with 0.01% DDM.
Assay [13] has the same target. Put plainly: SEC; WT and mutant ectodomains (16 μM) with nine volumes of citrate buffer pH 4.3, 500 mM NaCl, 0.1% DDM, 2 or 4 h at 37 °C; running buffer pH 4.3 with 0.01% DDM.
For assay [14], the target named is Cyani HAP2 ectodomain (residues 28–564), wild type, from Expi293F cells (Cyanidioschyzon merolae). Put plainly: SEC; WT and mutant ectodomains (16 μM) with nine volumes of citrate buffer pH 3.5, 500 mM NaCl, 0.1% DDM, 37 °C; running buffer pH 3.5 with 0.01% DDM.
For assay [15] the target is unchanged. Put plainly: SEC; WT and mutant ectodomains (16 μM) with nine volumes of citrate buffer pH 4.3, 500 mM NaCl, 0.1% DDM, 2 or 4 h at 37 °C; running buffer pH 4.3 with 0.01% DDM.
The target is the same in assay [16]. Put plainly: SEC; WT and mutant ectodomains (16 μM) with nine volumes of citrate buffer pH 4.7, 500 mM NaCl, 0.1% DDM; gel filtered immediately or after 2 h at 37 °C in pH 4.7 buffer with 0.01% DDM.

“And” between values parts separate entries of the source, which are not always exact repeats. Equal entries are not always repeated.

For orientation: stoichiometry N means the number of molecules, sites or subunits per partner or assembly. “Cyani HAP2 D1D2 (residues 28–457) (domain or fragment)”: the stoichiometry N was 3 and 2 in assay [1]; 3 in assay [2].

“Chlamy HAP2 (Chlamydomonas reinhardtii HAP2), purified monomer (domain or fragment)”: the stoichiometry N is 2 and 3 in assay [3]; 3 and 6 in assay [4].

Regarding “Cyani HAP2 ectodomain (residues 28–564) fusion loop mutant FL2 (L210A, L211A, F213A) (domain or fragment)”, the stoichiometry N in assay [5] and in assay [6] was 3 each time.

Consider “Cyani HAP2 ectodomain (aa 28–564), from Drosophila S2 cells (domain or fragment)”, for which the stoichiometry N was 3 and 6 in assay [7]; 3 in assay [8]; 3 in [9]; 2 and 3 in assay [10]; 3 and 6 in [11].

As to “Cyani HAP2 ectodomain (residues 28–564) fusion loop mutant FL3 (W147A, L148A) (domain or fragment)”, the stoichiometry N in assay [12] and in [13] was 3 each time.

With “Cyani HAP2 ectodomain (residues 28–564), wild type, from Expi293F cells (domain or fragment)”, the stoichiometry N in assay [14], in [15] and in assay [16] was 3 in each case.

For the origin of these results see publication PMC9279424.
